{"source": "patent US6174855A", "about": "“Pharmaceutical compositions comprising thrombin inhibitors and their use in the control of wound healing processes” (AstraZeneca AB, priority 1996, dated 2001)", "molecules": {"B1": {"name": "Actilyse: recombinant human tissue-plasminogen-activator; Boehringer Ingelheim (protein, UniProt P00750 36-562, looked up)", "Tissue-type plasminogen …": "SYQVICRDEKTQMIYQQHQSWLRPVLRSNRVEYCWCNSGRAQCHSVPVKSCSEPRCFNGGTCQQALYFSDFVCQCPEGFAGKCCEIDTRATCYEDQGISYRGTWSTAESGAECTNWNSSALAQKPYSGRRPDAIRLGLGNHNYCRNPDRDSKPWCYVFKAGKYSSEFCSTPACSEGNSDCYFGNGSAYRGTHSLTESGASCLPWNSMILIGKVYTAQNPSAQALGLGKHNYCRNPDGDAKPWCHVLKNRRLTWEYCDVPSCSTCGLRQYSQPQFRIKGGLFADIASHPWQAAIFAKHRRSPGERFLCGGILISSCWILSAAHCFQERFPPHHLTVILGRTYRVVPGEEEQKFEVEKYIVHKEFDDDTYDNDIALLQLKSDSSRCAQESSVVRTVCLPPADLQLPDWTECELSGYGKHEALSPFYSERLKEAHVRLYPSSRCTSQHLLNRTVTDNMLCAGDTRSGGPQANLHDACQGDSGGPLVCLNDGRMTLVGIISWGLGCGQKDVPGVYTKVTNYLDWIRDNMRP"}}, "system": "fibrin-related adhesions between the stomach and the liver, the intestines and the omentum", "experiment": "Acetic acid injury to the serosal surface of the rat stomach: formation of adhesions", "assay_type": "in vivo", "conditions": "minipump in abdominal cavity, outlet free and open; wound covered by chitosan membrane; up to 10 days", "procedure": "The serosal surface of the stomach of an adult anaesthetised rat was exposed in an area of 7 mm diameter to 80% acetic acid over 60 seconds. After rinsing with buffered saline solution, an osmotic minipump (Alza 2001, volume about 220 μL; pumping rate about 1 μL/h; Alza Corp.; Palo Alto, Calif., USA; prefilled with a solution of the thrombin inhibitor melagatran, 2-100 μg/mL) was implanted into the peritoneal cavity, with the outlet of the pump kept open, and delivered its content into the abdominal cavity. The wounded area was covered by a chitosan membrane or, in an alternative experiment, a gel, having a diameter several millimeters larger than that of the injured area.\nThe serosal surface of the stomach of an adult, anaesthetised rat was exposed in an area of 7 mm diameter to 80% acetic acid over 60 seconds. After rinsing with buffered saline, the wounded area was covered by a chitosan membrane or, in an alternative experiment, a gel, having a diameter several millimeters larger than the injured area. An osmotic minipump (Alza 2001, volume about 220 μL; pumping rate about 1 μL/h; Alza Corp.; Palo Alto, Calif., USA; prefilled with a solution of the thrombin inhibitor melagatran, 2-100 μg/mL) was implanted subcutaneously, with the outlet of the pump kept open, delivering its content into the adjacent tissue. […]", "data": [{"molecule": "B1", "values": [{"measurement": "fibrin network or strands of newly formed granulation tissue connecting the stomach with the liver, the intestines and the omentum", "result": "No fibrin network, nor any strands of newly formed granulation tissue, could be detected"}]}]}
